This note sets out measurements from patent US12068729.

Assay [1] addresses human activated Factor XII (FXIIa), Enzyme Research Laboratories Cat #1212a (human). Put plainly: SPR Biacore, mAb captured by anti-hFc, 37 C. (In general: SPR reads the build-up and loss of mass on a sensor chip optically.)
The target in assay [2] is human Factor XII (FXII), Enzyme Research Laboratories Cat #1212 (human). Put plainly: SPR Biacore, mAb captured by anti-hFc, 37 C.
In assay [3] the target is human activated Factor XII (FXIIa), Enzyme Research Laboratories Cat #1212a (human). The experiment in a line: SPR Biacore, mAb captured by anti-hFc, 25 C.
Assay [4] has as its target human Factor XII (FXII), Enzyme Research Laboratories Cat #1212 (human). Put plainly: SPR Biacore, mAb captured by anti-hFc, 25 C.

In general, Kd refers to the constant that tells how readily two partners part at equilibrium. A higher Kd goes with weaker binding. Usually koff stands for the rate constant with which the complex falls apart. Read a low koff as slow dissociation. One may read the kon as a measure of how fast the partners come together. Higher therefore signals fast association. As usually defined, the t½ is how long it takes for the measured level to halve. A low value points to fast loss. As for “Comparator 1, a monoclonal antibody against human FXII/FXIIa having VH/VL sequences of antibody 3F7 according to U.S. Pat. No. 9,518,127 (CSL Behring GmbH)”, in assay [1], the 100 nM Ag Bound (RU) worked out at 312 RU, the Kd turned out to be 8.25 nM, the koff came to 0.00515 s⁻¹ and the kon was found to be 624000 M⁻¹ s⁻¹. Moreover, the t½ in assay [1] came out at 2 min. Also, in assay [2], the 100 nM Ag Bound (RU) was determined as 9.9 RU. Moreover, in assay [3], the 100 nM Ag Bound (RU) was 297 RU, the Kd was determined as 2.54 nM, the dissociation rate constant (koff) turned out to be 0.000996 s⁻¹ and the kon was 392000 M⁻¹ s⁻¹. Further, in assay [3], the t½ worked out at 11.6 min. This substance also came in with a 100 nM Ag Bound (RU) in assay [4] of 9.5 RU.

In assay [1], “Comparator 2, a human monoclonal antibody against human FXII having VH/VL sequences of antibody 15H8 according to U.S. Pat. No. 9,574,013 (Vanderbilt Univ./Aronora)” came in with a 100 nM Ag Bound (RU) of 187 RU, a Kd of 2.76 nM, a koff of 0.02 s⁻¹ and a kon of 7.25e+06 M⁻¹ s⁻¹. For the same substance, the t½ in assay [1] amounted to 1 min. In assay [2], this substance showed a 100 nM Ag Bound (RU) of 83.8 RU, a Kd of 45.3 nM, a koff of 0.0542 s⁻¹ and a kon of 1.2e+06 M⁻¹ s⁻¹. In assay [2], this substance gave a t½ of 0 h. In addition, in assay [3], the 100 nM Ag Bound (RU) is 197 RU, the Kd is 2.93 nM, the koff turned out to be 0.00451 s⁻¹ and the kon turned out to be 1.54e+06 M⁻¹ s⁻¹. For the same substance, the t½ in assay [3] came to 2.6 min. Also, in assay [4], the 100 nM Ag Bound (RU) was 86.1 RU, the Kd worked out at 37.3 nM, the koff stood at 0.00247 s⁻¹ and the kon worked out at 66100 M⁻¹ s⁻¹. This substance also came in with a t½ in assay [4] of 4.7 min.

On to Isotype control (antibody), for which the 100 nM Ag Bound (RU) was -2.7 RU in assay [1], 10.3 RU in assay [2], 0.1 RU in assay [3] and 10 RU in assay [4].
